Changes are numbered by the printed parent chain. Blank lines part the entries; values can stand above or below the binder they belong to.
Tests used:
[1] = biological target: T1, Human CD3ε stalk-Fc(knob)-Avi/CD3δ stalk-Fc(hole) (human); assay: SPR (Biacore T200, 25°C); TCB captured by anti-PG antibody on CM5 chip, 300 nM human CD3ε/δ injected; relative active concentration
T1 construct: Heterodimer of CD3 delta and CD3 epsilon ectodomains fused to a human Fc domain with knob-into-hole modifications and C-terminal Avi-tag; also called human CD3ε/δ; CD3ε/δ
Protocol: SPR experiments were performed on a Biacore T200 instrument (GE Healthcare) at 25° C. with HBS-P+(10 mM HEPES, 150 mM NaCl pH 7.4, 0.05% Surfactant P20) as running and dilution buffer. Anti-PG antibody (see Example 3) was immobilized by amine coupling (using amine coupling kit, Cytiva #BR100050) at a density of >6000 RU on a CM5 Chip (Sensor Chip CM5, Cytiva #29104988). The 10 nM solutions of TCB molecule samples in HBS-P+ were captured for 30 sec at a flow rate 10 μl/min. Then a 300 nM solution of human CD3ε/δ (see Example 3, SEQ ID NOs 24 and 25) was injected for 150 sec association time and 120 sec dissociation time at a flow rate of 10 μl/min. The regeneration of the surface followed by a 35 sec regeneration step with a 20 mM NaOH solution. The data were analyzed with the Biacore T200 Evaluation and Excel software. For the calculation of relative active concentration (RAC) the binding report point (BRP) was used (the BRP is a standard readout point in SPR, maximum response (unit/value) of interaction between antigen and antibody).

[2] = biological target: T2, human PLAP (ALPP) expressed on CHO-K1 cells (human, UniProt P05187 23-506); assay: cell-based or functional assay
[3] = biological target: T3, cynomolgus PLAP (ALPP) expressed on CHO-K1 cells (cynomolgus, UniProt P05187 23-452 (human entry)); assay: cell-based or functional assay
T3 chain: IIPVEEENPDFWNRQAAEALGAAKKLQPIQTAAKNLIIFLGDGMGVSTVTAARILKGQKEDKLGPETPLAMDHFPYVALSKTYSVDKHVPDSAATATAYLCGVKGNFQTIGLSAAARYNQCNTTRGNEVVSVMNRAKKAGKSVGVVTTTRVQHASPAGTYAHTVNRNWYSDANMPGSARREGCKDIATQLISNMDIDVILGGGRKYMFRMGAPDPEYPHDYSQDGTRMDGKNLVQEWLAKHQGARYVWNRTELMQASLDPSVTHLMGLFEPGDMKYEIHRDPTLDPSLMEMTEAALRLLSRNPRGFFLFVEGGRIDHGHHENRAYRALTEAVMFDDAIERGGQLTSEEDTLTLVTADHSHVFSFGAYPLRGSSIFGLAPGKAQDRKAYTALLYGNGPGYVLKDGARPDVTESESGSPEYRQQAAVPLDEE

[4] = biological target: human ALPG (ALPPL2) expressed on CHO-K1 cells (human, UniProt P10696 20-503); assay: cell-based or functional assay
[5] = biological target: T2, human PLAP (ALPP) expressed on CHO-K1 …; assay: cell-based or functional assay; remark: listed apart in the source
[6] = biological target: T4, Human PLAP (soluble, as injected in SPR) (human, UniProt P05187 23-506); assay: SPR single cycle kinetics (Biacore T200, 25°C); TCB captured by anti-PG antibody on CM3 chip, human PLAP as analyte
T4 construct: also called PLAP target
Protocol: (§1) The binding kinetics of the PLAP TCB molecules generated in Example 17 were characterized by the single cycle kinetic (SSK) assay. For this assay, again the SPR Biacore T200 was used. The immobilization was performed at 25° C. with HBS-N pH 7.4 as a running buffer (Cytiva #BR100670). The anti-PG antibody (see Example 3) was immobilized by amine coupling (using amine coupling kit, Cytiva #BR100050) at a density of >5000 RU on a CM3 Chip (Cytiva #29104990). The anti-PG antibody stock solution was diluted to a concentration of 25 μg/mL in a 10 mM sodium acetate buffer of pH 5.0 (Cytiva #BR100351). After the immobilization the analysis was performed at 25° C., and PBS-P+(Cytiva #28995084) was used as a running and a dilution buffer. The 3 nM solutions of TCB molecule samples in PBS-P+ were captured with anti-PG antibody on a CM3 sensor chip.
(§2) The derived kinetic rate constants and corresponding affinity values (equilibrium dissociation constant KD) are summarized in Table 26 for the CD3 binder and in Table 27 for the PLAP binder. The data were analyzed with the Biacore T200 Evaluation and Excel software.

[7] = biological target: T1, Human CD3ε stalk-Fc(knob)-Avi/CD3δ …; assay: SPR RAC assay (Biacore T200, 25°C); TCB captured by anti-PG antibody on CM3 chip, 200 nM human CD3ε/δ injected after 100 nM human PLAP
Protocol: (§3) SPR experiments were performed on a Biacore T200 instrument (GE Healthcare). For the immobilization. HBS-N pH 7.4 was used as a running buffer (Cytiva #BR100670). Anti-PG antibody (see Example 3) was immobilized by amine coupling (using amine coupling kit, Cytiva #BR100050) at a density of >6000 RU on a CM3 Chip (Cytiva #29104990). The anti-PG antibody stock solution was diluted to a concentration of 25 μg/mL in a 10 mM sodium acetate buffer of pH 5.0 (Cytiva #BR100351). After the immobilization the analysis was performed at 25° C., and using PBS-P+ (Cytiva #28995084) as a running and a dilution buffer. The 5 nM solutions of TCB molecule samples in PBS-P+ were captured for 30 sec at a flow rate 5 μl/min. Then a 100 nM solution of human PLAP was injected for 90 sec association time and 30 sec dissociation time at a flow rate of 8 μl/min. Thereafter, a 200 nM solution of human CD3ε/δ (see Example 3, SEQ ID NOs 24 and 25) was injected for 90 sec association time and 30 sec dissociation time at a flow rate of 8 μl/min. The regeneration of the surface followed by two 60 sec regeneration steps with a 10 mM NaOH solution. The data were analyzed with the Biacore T200 Evaluation and Excel software. For the calculation of relative active concentration (RAC) the binding report point (BRP) was used. To calculate the RAC, the target and antibody concentrations were referenced to the unstressed sample (−80° C.) as 100% comparison. For the normalization of the protein concentration, reference was made to anti-PG antibody capturing (RAC values).

[8] = biological target: T4, Human PLAP (soluble, as injected in SPR); assay: SPR RAC assay (Biacore T200, 25°C); TCB captured by anti-PG antibody on CM3 chip, 100 nM human PLAP injected
Protocol: as §3

[9] = biological target: T1, Human CD3ε stalk-Fc(knob)-Avi/CD3δ …; assay: SPR single cycle kinetics (Biacore T200, 25°C); TCB captured by anti-PG antibody on CM3 chip, human CD3ε/δ as analyte
Protocol: as §1, §2

T2 sequence (P05187 23-506): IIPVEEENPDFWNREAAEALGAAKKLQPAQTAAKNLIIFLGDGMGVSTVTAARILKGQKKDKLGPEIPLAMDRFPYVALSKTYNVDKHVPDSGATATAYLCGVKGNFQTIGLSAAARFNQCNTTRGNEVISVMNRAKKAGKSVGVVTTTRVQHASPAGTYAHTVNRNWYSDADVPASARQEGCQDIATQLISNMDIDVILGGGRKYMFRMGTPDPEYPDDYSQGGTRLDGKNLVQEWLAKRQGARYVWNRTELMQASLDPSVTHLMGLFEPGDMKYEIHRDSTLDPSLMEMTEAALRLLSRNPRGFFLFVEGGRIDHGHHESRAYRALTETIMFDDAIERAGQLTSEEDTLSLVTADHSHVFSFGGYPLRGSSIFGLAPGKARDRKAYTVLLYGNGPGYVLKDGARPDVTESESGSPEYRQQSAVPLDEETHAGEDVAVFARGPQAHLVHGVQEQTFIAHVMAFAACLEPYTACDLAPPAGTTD
T4 sequence (P05187 23-506 limits assumed): as the sequence (P05187 23-506) above

RAC % of CD3 binding, stress A [1]: 100% | RAC % of CD3 binding, stress B [1]: 98% | RAC % of CD3 binding, unstressed [1]: 100% | EC50 (pM), Jurkat NFAT reporter assay to show cynomolgus cross-reactivity [2]: 98 pM | EC50 (pM), Jurkat NFAT reporter assay to show cynomolgus cross-reactivity [3]: 45 pM | EC50 (pM), Jurkat NFAT reporter assay (luminescence, 6 h) [4]: 40 pM | EC50 (pM), Jurkat NFAT reporter assay (luminescence, 6 h) [5]: 37 pM
B1: PLAP H1 CD3 P035.093 TCB (bispecific antibody, human IgG1, kappa, L234A L235A)
heavy 1: not shown
heavy 2: QVQLQESGPGLVKPSETLSLTCTVSGFSLTSYGVSWIRQPPGKGLEWIGVIWEDGSTNYHSALISRVTISVDTSKNQFSLKLSSVTAADTAVYYCARPHYGSSYVGAMEYWGAGTTVTVSSASTKGPSVFPLAPSSKSTSGGTAALGCLVEDYFPEPVTVSWNSGALTSGVHTFPAVLQSSGLYSLSSVVTVPSSSLGTQTYICNVNHKPSNTKVDEKVEPKSCDKTHTCPPCPAPEAAGGPSVFLFPPKPKDTLMISRTPEVTCVVVDVSHEDPEVKFNWYVDGVEVHNAKTKPREEQYNSTYRVVSVLTVLHQDWLNGKEYKCKVSNKALGAPIEKTISKAKGQPREPQVCTLPPSRDELTKNQVSLSCAVKGFYPSDIAVEWESNGQPENNYKTTPPVLDSDGSFFLVSKLTVDKSRWQQGNVFSCSVMHEALHNHYTQKSLSLSP
light 1: DIQMTQSPSSLSASVGDRVTITCRASENIYSYVAWYQQKPGKAPKLLIYNAKSLASGVPSRFSGSGSGTDFTLTISSLQPEDFATYYCQHHYVSPWTFGGGTKLEIKRTVAAPSVFIFPPSDRKLKSGTASVVCLLNNFYPREAKVQWKVDNALQSGNSQESVTEQDSKDSTYSLSSTLTLSKADYEKHKVYACEVTHQGLSSPVTKSFNRGEC
light 2: EVQLLESGGGLVQPGGSLRLSCAASGFTFSSYAMNWVRQAPGKGLEWVSRIRSKYNNYATYYADSVKGRFTISRDDSKNTLYLQMNSLRAEDTAVYYCVRASNFPASYVSYFAYWGQGTLVTVSSASVAAPSVFIFPPSDEQLKSGTASVVCLLNNFYPREAKVQWKVDNALQSGNSQESVTEQDSKDSTYSLSSTLTLSKADYEKHKVYACEVTHQGLSSPVTKSFNRGEC
notes: also called PLAP H1 TCB; PLAP (H1) TCB

RAC % of CD3 binding, stress A [1]: 97% | RAC % of CD3 binding, stress B [1]: 99% | RAC % of CD3 binding, unstressed [1]: 100% | EC50 (pM), Jurkat NFAT reporter assay to show cynomolgus cross-reactivity [2]: 37 pM | EC50 (pM), Jurkat NFAT reporter assay to show cynomolgus cross-reactivity [3]: 52 pM | EC50 (pM), Jurkat NFAT reporter assay (luminescence, 6 h) [4]: 34 pM | EC50 (pM), Jurkat NFAT reporter assay (luminescence, 6 h) [5]: 36 pM
B2: PLAP H5 CD3 P035.093 TCB (bispecific antibody, human IgG1, kappa, L234A L235A)
heavy 1: not shown
heavy 2: B1 heavy 2 with F27G, L29V
light 1: B1 light 1
light 2: B1 light 2
notes: also called PLAP H5 TCB; PLAP (H5) TCB

RAC % of CD3 binding, stress A [1]: 100% | RAC % of CD3 binding, stress B [1]: 98% | RAC % of CD3 binding, unstressed [1]: 100% | EC50 (pM), Jurkat NFAT reporter assay (luminescence, 6 h) [4]: 34 pM | EC50 (pM), Jurkat NFAT reporter assay (luminescence, 6 h) [5]: 36 pM
B3: PLAP H4 CD3 P035.093 TCB (bispecific antibody, human IgG1, kappa, L234A L235A)
heavy 1: not shown
heavy 2: B1 heavy 2 with F27G, L29I
light 1: B1 light 1
light 2: B1 light 2
notes: also called PLAP H4 TCB

RAC % of CD3 binding, stress A [1]: 100% | RAC % of CD3 binding, stress B [1]: 96% | RAC % of CD3 binding, unstressed [1]: 100% | EC50 (pM), Jurkat NFAT reporter assay (luminescence, 6 h) [4]: 22 pM | EC50 (pM), Jurkat NFAT reporter assay (luminescence, 6 h) [5]: 21 pM
B4: PLAP H2 CD3 P035.093 TCB (bispecific antibody, human IgG1, kappa, L234A L235A)
heavy 1: not shown
heavy 2: B1 heavy 2 with P41A, I69M
light 1: B1 light 1
light 2: B1 light 2
notes: also called PLAP H2 TCB; PLAP (H2) TCB

Kd [6]: 0.0051 nM | koff [6]: 2.22e-05 s⁻¹ | kon [6]: 4.33e+06 M⁻¹ s⁻¹ | RAC [%] CD3 binding, stress A [7]: 99% | RAC [%] CD3 binding, stress B [7]: 98% | RAC [%] CD3 binding, unstressed [7]: 100% | RAC [%] PLAP binding, stress A [8]: 100% | RAC [%] PLAP binding, stress B [8]: 100% | RAC [%] PLAP binding, unstressed [8]: 100% | Kd [9]: 0.5 nM | koff [9]: 0.000933 s⁻¹ | kon [9]: 2.09e+06 M⁻¹ s⁻¹ | RAC % of CD3 binding, stress A [1]: 99% | RAC % of CD3 binding, stress B [1]: 97% | RAC % of CD3 binding, unstressed [1]: 100% | EC50 (pM), Jurkat NFAT reporter assay to show cynomolgus cross-reactivity [2]: 98 pM | EC50 (pM), Jurkat NFAT reporter assay to show cynomolgus cross-reactivity [3]: 48 pM | EC50 (pM), Jurkat NFAT reporter assay (luminescence, 6 h) [4]: 35 pM | EC50 (pM), Jurkat NFAT reporter assay (luminescence, 6 h) [5]: 35 pM
B5: PLAP H3 CD3 P035.093 TCB (bispecific antibody, human IgG1, kappa, L234A L235A)
heavy 1: not shown
heavy 2: B1 heavy 2 with H60N, S61P, A62S, I64K
light 1: B1 light 1
light 2: B1 light 2
notes: 2+1 IgG CrossFab, inverted; also called PLAP H3 TCB; PLAP (H3) TCB

Reference: patent US20240018240A1 (Hoffmann-La Roche, published 2024)
